This note sets out measurements from article PMC6508567.

Assay [1] concerns the target serpin Z4 (barley (Hordeum vulgare) cv. Harrington) (UniProt P06293). The experiment in a line: MST; serpin Z4 labelled with an NHS-ester fluorescent dye (70 nM), unlabelled β-amylase from 16 μM to 0.5 nM; PBS with 0.1% Tween-20; Monolith NT.115; three replicates combined.
Assay [2] has the same target. The experiment in a line: SPR; serpin Z4 immobilised by amine coupling on a CM5 chip, β-amylase injected at 2, 0.9, 0.4, 0.2 and 0.1 μM; PBS; Biacore T200. For orientation: SPR reads the build-up and loss of mass on a sensor chip optically.

serpin Z4 (barley (Hordeum vulgare) cv. Harrington), sequence (P06293 whole entry): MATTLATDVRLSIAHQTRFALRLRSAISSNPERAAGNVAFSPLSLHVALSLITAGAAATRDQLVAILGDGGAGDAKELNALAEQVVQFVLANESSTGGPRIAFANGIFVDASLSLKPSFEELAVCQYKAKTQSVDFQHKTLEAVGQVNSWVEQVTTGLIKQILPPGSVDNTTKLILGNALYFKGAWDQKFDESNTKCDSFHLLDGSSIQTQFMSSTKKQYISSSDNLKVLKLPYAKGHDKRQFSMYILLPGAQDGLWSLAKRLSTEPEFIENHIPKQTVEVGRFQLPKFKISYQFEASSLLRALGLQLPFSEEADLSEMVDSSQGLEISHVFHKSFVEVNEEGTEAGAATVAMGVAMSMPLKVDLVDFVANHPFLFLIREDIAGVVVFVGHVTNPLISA

On to “β-amylase WT (from UniProt P16098 1-535) (enzyme)”, for which the values for the Kd in assay [1] and in assay [2] were 100 nM and 316 nM, respectively.

What is called Kd is the equilibrium constant for the complex coming apart.
